The data set concerns GFPY40 reporter (GFP containing an amber codon) in HEK293 cells stably expressing pylRS. In words: Amber suppression-dependent GFP expression (GFPY40 reporter), transient transfection, flow cytometry. The following applies: for GFP MFI, FIG. 8: 1 ug PCR product of each construct, lys azide nnAA; for capacity to support amber suppression relative to H1 WT tRNA (FIG. 4): all tRNA variants under control of the H1 promoter, 1 ug construct + 1 ug GFPY40, lys azide 2 mM, 18 hours. The format is cell-based. The method, then: To assess the function of the tRNA variants, an in vitro assay was established where cells are transiently transfected with a tRNA construct and a reporter construct encoding GFP containing an amber codon interrupting its reading frame (GFPY40). HEK293 cells stably expressing pylRS were transiently transfected with various tRNA constructs (1 ug) and the GFPY40 reporter (1 ug). In the absence of elements that support amber suppression, a truncated GFP protein is generated and the cell is not fluorescent. However, the introduction of a functional tRNA and the presence of a nnAA that supports amber suppression allows for the production of full length GFP resulting in fluorescent cells. The level of GFP expression reflects the efficiency of amber suppression and is quantified by flow cytometry. tRNA genes encoding wild type tRNApyl (WT tRNA), or containing mutations in the B-box (B tRNA—SEQ ID No 9), in both the A and B box (A2B tRNA—SEQ ID No 10), or in the A box (A1 tRNA-SEQ ID No 7; or A2 tRNA SEQ ID No 11), all under control of the H1 promoter were generated by site directed mutagenesis and assayed. The H1 promoter ensured that the variants were expressed and allowed us to examine the functional effects of the mutations introduced into the tRNA genes. In addition a sample transfected with GFPY40 alone was generated to establish background GFP levels. The transfected cells were grown in presence of the aminoacid analogue lys azide (2 mM) and incubated for 18 hours. GFP fluorescence was then assayed by flow cytometry and mean fluorescence intensity determined for each sample. Data were analysed with FCS Express and the mean fluorescence intensity of each sample determined using markers that constrain the data set to cells showing fluorescence above negative controls.
To begin to assess whether the tRNA mutations can support expression of the tRNA we assayed tRNA constructs encoding the wild type tRNA in the absence of the H1 promoter. Constructs encoding wild type tRNApyl (WT tRNA) or containing mutations in the B-box (B tRNA—SEQ ID No 9) or in both the A and B box (A2B; A2B tRNA—SEQ ID No 10) were assayed using our in vitro amber suppression assay described above. WT tRNA under control of the H1 promoter (H1-tRNA) was used as a positive control, and in addition one sample was transfected only with the GFPY40 reporter to illustrate background amber suppression in the absence of tRNA. The transfected cells were exposed to 2 mM lys-azide nnAA and cells incubated for three days. GFP expression was examined by flow cytometry and mean fluorescence intensity determined.
Two copies of the WT, B, or A2B tRNA were cloned in tandem to generate a single vector containing two copies of WT, B, or A2B tRNA. To assess the effect of increased gene doses by these constructs, cells expressing WTpylRS were transiently transfected with the tRNA constructs and the GFPY40 reporter construct and GFP expression assayed after two days.
The activity of each construct was assessed by transient transfection into cells stably expressing WT pylRS with the GFPY40 reporter as described above. For this experiment, 1 ug of a PCR product encoding each of the indicated constructs was used. In each case, cells were exposed to the lys azide nnAA for three days and GFP levels assayed by flow cytometry. Mean fluorescence intensities were determined for each sample and plotted (FIG. 8).

Setting [1] is: 2 mM lys-azide nnAA, three days.

B1: Vault WT tRNA: WT tRNApyl downstream of the Vault promoter 5′ region (nucleic acid)
DNA: TGGTCGCTGAGTCATGCTGAAGCACTCTCTTTTTGACTCACTCTTTGTGACGTAGGTCTTTCTCACCAGTCAATAAAATATAATCCGAAAGCAACCTCCCACCAGGAAACCTGATCATGTAGATCGAATGGACTCTAAATCCGTTCAGCCGGGTTAGATTCCCGGGGTTTCCGGACAAGTGCGGTTTTT
modifications: Synthetic sequence Vault tRNA-WT construct
notes: WT tRNApyl downstream of the Vault promoter 5′ region
Consider B1, for which the “GFP MFI, FIG. 8” value (three days) is reported as 102,415.

B2: A2B tRNA: tRNApyl Methanosarcina mazei with A10G, T14A, A52C mutations (nucleic acid)
DNA: GGAAACCTGGTCAAGTAGATCGAATGGACTCTAAATCCGTTCAGCCGGGTTCGATTCCCGGGGTTTCCG
modifications: expressed or natural sequence
notes: tRNApyl Methanosarcina mazei with A10G, T14A, A52C mutations
As for B2, the “capacity to support amber suppression relative to H1 WT tRNA (FIG. 4)” value was “support amber suppression, albeit at a lower level than the WT tRNA”. Also, under setting [1], the “GFP mean fluorescence intensity (MFI), FIG. 5” value is recorded as 242,747.9 and the “fold higher expression of GFP than the wt tRNA construct (FIG. 5)” value turned out to be 2.5 fold. Where the note is “cells expressing WTpylRS, after two days, single copy”, the “GFP MFI, single copy tRNA, FIG. 7” value was 61,950. Also, the “GFP MFI, tandem copies of tRNA, FIG. 7” value (cells expressing WTpylRS, after two days, single vector containing two copies in tandem) is listed as 96,158.

B3: 7SL tRNA A1: tRNA-A1 downstream of the 7SL promoter 5′ region (nucleic acid)
DNA: CCCAGTTGATGACGTCACCATACCACAGCTTCTAGTGCTATTCTGCGCCGGTATCCGACCACCAGGAAACCTGGTCATGTAGATCGAATGGACTCTAAATCCGTTCAGCCGGGTTAGATTCCCGGGGTTTCCGGACAAGTGCGGTTTTT
modifications: Synthetic sequence 7SL tRNA-A1 construct
notes: tRNA-A1 downstream of the 7SL promoter 5′ region
For B3, the “GFP MFI, FIG. 8” value (three days) is recorded as 114,393.

B4: 7SL AB: tRNA-AB downstream of the 7SL promoter 5′ region (nucleic acid)
DNA: CCCAGTTGATGACGTCACCATACCACAGCTTCTAGTGCTATTCTGCGCCGGTATCCGACCACCAGGAAACCTGGTCATGTAGATCGAATGGACTCTAAATCCGTTCAGCCGGGTTCGATTCCCGGGGTTTCCGGACAAGTGCGGTTTTT
modifications: Synthetic sequence 7SL tRNA-AB construct
notes: tRNA-AB downstream of the 7SL promoter 5′ region
Consider B4, for which the “GFP MFI, FIG. 8” value (three days) is on record as 210,380.

B5: 7SL A2B: tRNA-A2B downstream of the 7SL promoter 5′ region (nucleic acid)
DNA: CCCAGTTGATGACGTCACCATACCACAGCTTCTAGTGCTATTCTGCGCCGGTATCCGACCACCAGGAAACCTGGTCAAGTAGATCGAATGGACTCTAAATCCGTTCAGCCGGGTTCGATTCCCGGGGTTTCCGGACAAGTGCGGTTTTT
modifications: Synthetic sequence 7SL tRNA-A2B construct
notes: tRNA-A2B downstream of the 7SL promoter 5′ region
For the molecule B5, the “GFP MFI, FIG. 8” value (three days) was 245,120.

B6: H1-A1 tRNA: tRNA-A1 (A10G) under control of the H1 promoter (nucleic acid)
DNA: AATATTTGCATGTCGCTATGTGTTCTGGGAAATCACCATAAACGTGAAATCCCTATCAGTGATAGAGACTTATAAGTTCCCTATCAGTGATAGAGACACCAGGAAACCTGGTCATGTAGATCGAATGGACTCTAAATCCGTTCAGCCGGGTTAGATTCCCGGGGTTTCCGGACAAGTGCGGTTTTTTT
modifications: Synthetic sequence H1 tRNA-A1 construct
notes: tRNA-A1 (A10G) under control of the H1 promoter
For the molecule B6, the “capacity to support amber suppression relative to H1 WT tRNA (FIG. 4)” value is listed as “does not affect the activity of the tRNA”.

B7: H1 A2 tRNA: tRNA-A2 (A10G, T14A) under control of the H1 promoter (nucleic acid)
DNA: AATATTTGCATGTCGCTATGTGTTCTGGGAAATCACCATAAACGTGAAATCCCTATCAGTGATAGAGACTTATAAGTTCCCTATCAGTGATAGAGACACCAGGAAACCTGGTCAAGTAGATCGAATGGACTCTAAATCCGTTCAGCCGGGTTAGATTCCCGGGGTTTCCGGACAAGTGCGGTTTTTTT
modifications: Synthetic sequence H1 tRNA-A2 construct
notes: tRNA-A2 (A10G, T14A) under control of the H1 promoter
Take B7: the “capacity to support amber suppression relative to H1 WT tRNA (FIG. 4)” value is recorded as “does not affect the activity of the tRNA”.
